Assay results reported in US20240218065A1 (SHENGHE CHINA BIOPHARMACEUTICAL, published 2024).
Like-named read-outs stand apart in the source and are kept apart here.

T1: Human-NKP30-His (Kactus, cat: NKP-HM430) (human, UniProt O14931 19-138, limits assumed)
T1 construct: also called NKP30 protein; NKP30-his protein; not shown: His tag
T1 sequence (looked up): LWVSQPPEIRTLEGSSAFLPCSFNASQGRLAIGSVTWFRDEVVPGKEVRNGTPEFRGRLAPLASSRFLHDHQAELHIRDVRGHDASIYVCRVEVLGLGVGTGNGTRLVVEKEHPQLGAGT


What was measured:
[1] = molecular target: T1, Human-NKP30-His (Kactus, cat: NKP-HM430); assay: ELISA: Human-NKP30-His coated, antibody titrated 3-fold from 10 µg/mL, HRP goat anti-human IgG-Fc, OD450-OD570
Method: (§1) Human-NKP30-His (Kactus, cat: NKP-HM430) was diluted to […] with PBS buffer at pH 7.4, added into the 96-well ELISA plate at 100 μL per well, coated overnight at 4° C., and blocked with 1% BSA blocking solution for 1 hour. The plate was washed 3 times with PBST, and the constructed antibodies were diluted to 10 μg/mL with 0.5% BSA sample diluent as the starting concentration, and then diluted by 3-fold gradient (11 gradients in total). A negative control (blank well and IgG1 isotype control) and a positive control were set, and the positive control was a NKP30 humanized antibody (sequence shown in SEQ ID No. 28), and incubated at 37° C. for 1 h at 100 μL per well. The plate was washed 3 times with PBST, and then HRP-labelled goat anti-human IgG-Fc was diluted with the sample diluent at 1:20000. 100 μL was added into each well, and incubated at room temperature for 1 hour. The plate was washed 4 times with PBST, and 100 μL of TMB substrate was added into each well, and incubated at room temperature without light for 10 minutes. 100 μL of 1 M HCl solution was added into each well to terminate the color development reaction. The absorbance value of each well in the 96-well plate was determined by selecting the wavelength of 450 nm and the reference wavelength of 570 nm on a multifunctional enzyme marker, and the absorbance value (OD)=OD₄₅₀ₙₘ−OD₅₇₀ₙₘ. The logarithm of the concentration of the constructed antibody was taken as the abscissa, and the measured absorbance value of each well was taken as the ordinate, and the Sigmoidaldose-response (Variable Slope) method (GraphPad Prism software, GraphPad Software, San Diego, California) was selected for nonlinear regression to obtain the binding curve of the target antibody to NKP30.

[2] = molecular target: T2, Human-GPC3-His (human, UniProt P51654 25-559, limits assumed); assay: ELISA: Human-GPC3-His coated at 0.5 µg/mL, antibody titrated 3-fold from 10 µg/mL, HRP goat anti-human IgG-Fc, OD450-OD570
T2 construct: Coated on the ELISA plate; also called GPC-3 protein; GPC3 protein; not shown: His tag
T2 sequence (P51654 25-559 limits assumed): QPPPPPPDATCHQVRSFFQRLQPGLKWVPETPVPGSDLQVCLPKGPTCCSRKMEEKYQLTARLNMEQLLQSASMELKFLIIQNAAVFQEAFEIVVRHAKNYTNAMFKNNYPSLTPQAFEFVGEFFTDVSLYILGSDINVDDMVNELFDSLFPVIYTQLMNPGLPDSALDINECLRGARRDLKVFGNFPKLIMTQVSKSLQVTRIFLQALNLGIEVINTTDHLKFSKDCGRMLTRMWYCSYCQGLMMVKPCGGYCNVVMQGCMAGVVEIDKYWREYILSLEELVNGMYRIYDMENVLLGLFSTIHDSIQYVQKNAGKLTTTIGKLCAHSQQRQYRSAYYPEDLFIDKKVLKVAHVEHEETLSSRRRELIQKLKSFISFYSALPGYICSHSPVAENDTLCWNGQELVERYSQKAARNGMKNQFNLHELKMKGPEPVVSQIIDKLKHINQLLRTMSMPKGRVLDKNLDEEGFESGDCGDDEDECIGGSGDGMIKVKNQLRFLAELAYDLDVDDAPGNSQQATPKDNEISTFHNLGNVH
Method: (§2) Human-GPC3-His was diluted to 0.5 μg/mL with PBS buffer at pH 7.4, added into the 96-well ELISA plate at 100 μL per well, coated overnight at 4° C., and blocked with 1% BSA blocking solution for 1 hour. The plate was washed 3 times with PBST, and the constructed antibody was diluted to 10 μg/mL with 0.5% BSA sample diluent as the starting concentration, and then diluted by 3-fold gradient (11 gradients in total) and incubated at 37° C. for 1 h at 100 μL per well. The plate was washed 3 times with PBST, and then HRP-labelled goat anti-human IgG-Fc was diluted with the sample diluent at 1:20000. 100 μL was added into each well, and incubated at room temperature for 1 hour. A negative control (blank well and IgG1 isotype control) and a positive control were set, and the positive control was a GPC-3 and CD3 bispecial antibody from the literature Hs, A, et al. “Engineering a bispecific antibody with a common light chain: Identification and optimization of an anti-CD3 epsilon and anti-GPC3 bispecific antibody, ERY974.” Methods 154 (2019): 10-20. (The GPC-3 and CD3 bispecial antibody sequence consists of SEQ ID No. 22, SEQ ID No. 23, and SEQ ID No. 24). The plate was washed 4 times with PBST, and 100 μL of TMB substrate was added into each well, and incubated at room temperature without light for 10 minutes. 100 μL of 1 M HCl solution was added into each well to terminate the color development reaction. The absorbance value of each well in the 96-well plate was determined by selecting the wavelength of 450 nm and the reference wavelength of 570 nm on a multifunctional enzyme marker, and the absorbance value (OD)=OD₄₅₀ₙₘ−OD₅₇₀ₙₘ. The logarithm of the concentration of the constructed antibody was taken as the abscissa, and the measured absorbance value of each well was taken as the ordinate, and the Sigmoidaldose-response (Variable Slope) method (GraphPad Prism software, GraphPad Software, San Diego, California) was selected for nonlinear regression to obtain the binding curve of the target antibody to the GPC-3 protein.

[3] = molecular target: T1, Human-NKP30-His (Kactus, cat: NKP-HM430); assay: ELISA: Human-NKP30-His coated, antibody titrated 3-fold from 10 µg/mL, HRP goat anti-human IgG-Fc, OD450-OD570; remark: listed apart in the source
Method: as §1

[4] = molecular target: T2, Human-GPC3-His; assay: ELISA: Human-GPC3-His coated at 0.5 µg/mL, antibody titrated 3-fold from 10 µg/mL, HRP goat anti-human IgG-Fc, OD450-OD570; remark: listed apart in the source
Method: as §2

Binder	EC50 (read off the curve) [1] [µg/mL]	EC50 (read off the curve) [2] [µg/mL]	EC50 (read off the curve) [3] [µg/mL]	EC50 (read off the curve) [4] [µg/mL]
GN15-D (bispecific antibody, human IgG1, kappa, Trifunctional antibody against GPC-3 and NKP30 with IL-15 and IL-15Rα sushi between CH1 and CH2; also called constructed antibody GN15-D; multifunctional antibody) light: DVVMTQSPLSLPVTPGEPASISCRSSQSLVHSNRNTYLHWYLQKPGQSPQLLIYKVSNRFSGVPDRFSGSGSGTDFTLKISRVEAEDVGVYYCSQNTHVPPTFGQGTKLEIKRTVAAPSVFIFPPSDEQLKSGTASVVCLLNNFYPREAKVQWKVDNALQSGNSQESVTEQDSKDSTYSLSSTLTLSKADYEKHKVYACEVTHQGLSSPVTKSFNRGEC heavy 1: not shown heavy 2: QVQLVQSGAEVKKPGASVKVSCKASGYTFTDYEMHWVRQAPGQGLEWMGALDPKTGDTAYSQKFKGRVTLTADKSTSTAYMELSSLTSEDTAVYYCTRFYSYTYWGQGTLVTVSSASTKGPSVFPLAPSSKSTSGGTAALGCLVKDYFPEPVTVSWNSGALTSGVHTFPAVLQSSGLYSLSSVVTVPSSSLGTQTYICNVNHKPSNTKVDKKVEPKSCDKTHTCPPCPGGGGSGGGGSPALLLLLLLRPPATRGITCPPPMSVEHADIWVKSYSLYSRERYICNSGFKRKAGTSSLTECVLNKATNVAHWTTPSLKCIRDPALVHQRPAPPSTVTTAGVTPQPESLSPSGKEGGGGSGGGGSAPELLGGPSVFLFPPKPKDTLMISRTPEVTCVVVDVSHEDPEVKFNWYVDGVEVHNAKTKPREEQYNSTYRVVSVLTVLHQDWLNGKEYKCKVSNKALPAPIEKTISKAKGQPREPQVYTLPPSRDELTKNQVSLTCLVKGFYPSDIAVEWESNGQPENNYKTTPPVLDSDGSFFLASKLTVDKSRWQQGNVFSCSVMHEALHNHYTQKSLSLSPGKGGGGSGGGGSGGGGSGGGGSEVQLVESGGGLVQPGGSLRLSCAASGITFSRSVMGWFRQAPGKLRELVAGITSDDNTDYADSVKGRFTISRDNSKNTLYLQMNSLRAEDTAVYYCNILPDSRLGWGQGTLVTVSS	~0.03	~0.04		
GN15-E (bispecific antibody, human IgG1, kappa, Trifunctional antibody against GPC-3 and NKP30 with IL-15 and IL-15Rα sushi between CH1 and CH2; also called constructed antibody GN15-E; multifunctional antibody) light 1: EVQLVESGGGLVQPGGSLRLSCAASGITFSRSVMGWFRQAPGKLRELVAGITSDDNTDYADSVKGRFTISRDNSKNTLYLQMNSLRAEDTAVYYCNILPDSRLGWGQGTLVTVSSGGGGSGGGGSGGGGSQVQLVQSGAEVKKPGASVKVSCKASGYTFTDYEMHWVRQAPGQGLEWMGALDPKTGDTAYSQKFKGRVTLTADKSTSTAYMELSSLTSEDTAVYYCTRFYSYTYWGQGTLVTVSSRTVAAPSVFIFPPSDEQLKSGTASVVCLLNNFYPREAKVQWKVDNALQSGNSQESVTEQDSKDSTYSLSSTLTLSKADYEKHKVYACEVTHQGLSSPVTKSFNRGEC heavy 1: not shown heavy 2: QVQLVQSGAEVKKPGASVKVSCKASGYTFTDYEMHWVRQAPGQGLEWMGALDPKTGDTAYSQKFKGRVTLTADKSTSTAYMELSSLTSEDTAVYYCTRFYSYTYWGQGTLVTVSSASTKGPSVFPLAPSSKSTSGGTAALGCLVKDYFPEPVTVSWNSGALTSGVHTFPAVLQSSGLYSLSSVVTVPSSSLGTQTYICNVNHKPSNTKVDKKVEPKSCDKTHTCPPCPGGGGSGGGGSPALLLLLLLRPPATRGITCPPPMSVEHADIWVKSYSLYSRERYICNSGFKRKAGTSSLTECVLNKATNVAHWTTPSLKCIRDPALVHQRPAPPSTVTTAGVTPQPESLSPSGKEGGGGSGGGGSAPELLGGPSVFLFPPKPKDTLMISRTPEVTCVVVDVSHEDPEVKFNWYVDGVEVHNAKTKPREEQYNSTYRVVSVLTVLHQDWLNGKEYKCKVSNKALPAPIEKTISKAKGQPREPQVYTLPPSRDELTKNQVSLTCLVKGFYPSDIAVEWESNGQPENNYKTTPPVLDSDGSFFLASKLTVDKSRWQQGNVFSCSVMHEALHNHYTQKSLSLSPGK light 2: DVVMTQSPLSLPVTPGEPASISCRSSQSLVHSNRNTYLHWYLQKPGQSPQLLIYKVSNRFSGVPDRFSGSGSGTDFTLKISRVEAEDVGVYYCSQNTHVPPTFGQGTKLEIKRTVAAPSVFIFPPSDEQLKSGTASVVCLLNNFYPREAKVQWKVDNALQSGNSQESVTEQDSKDSTYSLSSTLTLSKADYEKHKVYACEVTHQGLSSPVTKSFNRGEC		~0.06	~0.04	
GN15-B (bispecific antibody, human IgG1, kappa, Trifunctional antibody against GPC-3 and NKP30 with IL-15 and IL-15Rα sushi between CH1 and CH2; also called constructed antibody GN15-B; multifunctional antibody) light: DVVMTQSPLSLPVTPGEPASISCRSSQSLVHSNRNTYLHWYLQKPGQSPQLLIYKVSNRFSGVPDRFSGSGSGTDFTLKISRVEAEDVGVYYCSQNTHVPPTFGQGTKLEIKRTVAAPSVFIFPPSDEQLKSGTASVVCLLNNFYPREAKVQWKVDNALQSGNSQESVTEQDSKDSTYSLSSTLTLSKADYEKHKVYACEVTHQGLSSPVTKSFNRGEC heavy 1: not shown heavy 2: EVQLVESGGGLVQPGGSLRLSCAASGITFSRSVMGWFRQAPGKLRELVAGITSDDNTDYADSVKGRFTISRDNSKNTLYLQMNSLRAEDTAVYYCNILPDSRLGWGQGTLVTVSSGGGGSGGGGSGGGGSQVQLVQSGAEVKKPGASVKVSCKASGYTFTDYEMHWVRQAPGQGLEWMGALDPKTGDTAYSQKFKGRVTLTADKSTSTAYMELSSLTSEDTAVYYCTRFYSYTYWGQGTLVTVSSASTKGPSVFPLAPSSKSTSGGTAALGCLVKDYFPEPVTVSWNSGALTSGVHTFPAVLQSSGLYSLSSVVTVPSSSLGTQTYICNVNHKPSNTKVDKKVEPKSCDKTHTCPPCPGGGGSGGGGSPALLLLLLLRPPATRGITCPPPMSVEHADIWVKSYSLYSRERYICNSGFKRKAGTSSLTECVLNKATNVAHWTTPSLKCIRDPALVHQRPAPPSTVTTAGVTPQPESLSPSGKEGGGGSGGGGSAPELLGGPSVFLFPPKPKDTLMISRTPEVTCVVVDVSHEDPEVKFNWYVDGVEVHNAKTKPREEQYNSTYRVVSVLTVLHQDWLNGKEYKCKVSNKALPAPIEKTISKAKGQPREPQVYTLPPSRDELTKNQVSLTCLVKGFYPSDIAVEWESNGQPENNYKTTPPVLDSDGSFFLASKLTVDKSRWQQGNVFSCSVMHEALHNHYTQKSLSLSPGK	~0.03			~0.03
GN15-C (bispecific antibody, human IgG1, kappa, Trifunctional antibody against GPC-3 and NKP30 with IL-15 and IL-15Rα sushi between CH1 and CH2; also called constructed antibody GN15-C; multifunctional antibody) light: DVVMTQSPLSLPVTPGEPASISCRSSQSLVHSNRNTYLHWYLQKPGQSPQLLIYKVSNRFSGVPDRFSGSGSGTDFTLKISRVEAEDVGVYYCSQNTHVPPTFGQGTKLEIKRTVAAPSVFIFPPSDEQLKSGTASVVCLLNNFYPREAKVQWKVDNALQSGNSQESVTEQDSKDSTYSLSSTLTLSKADYEKHKVYACEVTHQGLSSPVTKSFNRGECGGGGSGGGGSGGGGSGGGGSEVQLVESGGGLVQPGGSLRLSCAASGITFSRSVMGWFRQAPGKLRELVAGITSDDNTDYADSVKGRFTISRDNSKNTLYLQMNSLRAEDTAVYYCNILPDSRLGWGQGTLVTVSS heavy 1: not shown heavy 2: QVQLVQSGAEVKKPGASVKVSCKASGYTFTDYEMHWVRQAPGQGLEWMGALDPKTGDTAYSQKFKGRVTLTADKSTSTAYMELSSLTSEDTAVYYCTRFYSYTYWGQGTLVTVSSASTKGPSVFPLAPSSKSTSGGTAALGCLVKDYFPEPVTVSWNSGALTSGVHTFPAVLQSSGLYSLSSVVTVPSSSLGTQTYICNVNHKPSNTKVDKKVEPKSCDKTHTCPPCPGGGGSGGGGSPALLLLLLLRPPATRGITCPPPMSVEHADIWVKSYSLYSRERYICNSGFKRKAGTSSLTECVLNKATNVAHWTTPSLKCIRDPALVHQRPAPPSTVTTAGVTPQPESLSPSGKEGGGGSGGGGSAPELLGGPSVFLFPPKPKDTLMISRTPEVTCVVVDVSHEDPEVKFNWYVDGVEVHNAKTKPREEQYNSTYRVVSVLTVLHQDWLNGKEYKCKVSNKALPAPIEKTISKAKGQPREPQVYTLPPSRDELTKNQVSLTCLVKGFYPSDIAVEWESNGQPENNYKTTPPVLDSDGSFFLASKLTVDKSRWQQGNVFSCSVMHEALHNHYTQKSLSLSPGK	~0.05			~0.03
